Data as given in patent US8329637B2, “Method for the treatment of automimmune diseases comprising administering rapamycin and IL-10” (priority 2002, dated 2012).

B1: IL-10: Human IL-10 (BD Biosciences), cytokine, 0.05 mg/Kg IP twice a day (protein, UniProt P22301 19-178, looked up)
Interleukin-10: SPGQGTQSENSCTHFPGNLPNMLRDLRDAFSRVKTFFQMKDQLDNLLLKESLLEDFKGYLGCQALSEMIQFYLEEVMPQAENQDPDIKAHVNSLGENLKTLRLRLRRCHRFLPCENKSKAVEQVKNAFNKLQEKGIYKAMSEFDIFINYIEAYMTMKIRN

Experiments:
[1] = test system: Tr1 and CD4+CD25+ T cells; assay: Tr cell content (cytokine profile by CBA, CD4+CD25+ by FACS) in spleen, PLN and IIC of treated NOD mice; type: cell-based, mouse; conditions: islet infiltrating cells (FIG. 11)
Description: Cytokine production by CD4^+ T cells (left panels) and percentages of CD4^+CD25^+ T cells (right panels) were evaluated by CBA and FACS analysis respectively, in the spleen (A), pancreatic lymph nodes (PLN) (B), and islet infiltrating cells (IIC) (C) of untreated-diabetic NOD mice (gray bars), rapamycin-treated mice (white bars), or rapamycin+IL-10-treated mice (black bars). […] The percentages of CD4^+CD25^+ T cells were higher in the spleen, PLN, and IIC of both mice treated with rapamycin alone or rapamycin+IL-10 (black bars). Therefore, in rapamycin+IL-10 treated mice, Tr1 cells are present in the spleen and CD4^+CD25^+ Tr cells are present in the spleen, lymph nodes, and pancreas.
The mechanisms underlying long-term tolerance were analysed in tolerant mice of 50 weeks of age or older. […] However, the proportion of splenic CD4^+ T cells producing IL-4 was the same in both untreated and treated mice. […]
Flow cytometry. Cells were stained with the indicated Abs (all from BD), and were analyzed with a FACScan flow cytometer equipped with CellQuest software (BD).
Cytokine measurement. Cytokines present in the collected supernatants were quantified by sandwich ELISA or flow cytometry based assay (CBA), using standard commercially available kits (BD). The percentage of cells producing specific cytokines was measured by intracellular staining. […]

NOD mice = assay: Diabetes inhibition study in NOD mice; type: in vivo, mouse
Description: (B) Pre-diabetic mice were treated daily starting from 11 weeks of age with either rapamycin, rapamycin+IL-10 or IL-10 alone.
NOD mice were treated from 11 weeks to 31 weeks of age with IL-10 (IL-10, n=7 mice), or rapamycin (RAPA, n=13 mice), or rapamycin+IL-10 (RAPA/IL-10 n=16 mice), or vehicle (CNTR, n=22 mice). Diabetes incidence, monitored by glycemia levels, was stable at least up to 60 weeks of age. Administration of rapamycin alone reduced diabetes incidence from 95% to 46%.
In our proposed protocol, down-regulation of inflammation should be achieved by IL-10, and blockade of T effector cell expansion should be achieved by rapamycin. Neither IL-10 nor rapamycin prevent T cell priming and therefore they should allow induction of antigen-specific T regulatory cells, and as described below, IL-10 should promote the induction and expansion of Tr1 cells. We investigated the effect of rapamycin alone or in combination with IL-10 in treating autoimmunity in the NOD mouse a model for type I diabetes. […] Inhibition of type I diabetes was evaluated by treating NOD mice daily starting at 11 weeks of age (i.e. pre-diabetic mice with periinsultis) with rapamycin, rapamycin+IL-10, or IL-10 alone. […]
Mice. […] Glucose level in the tail venous blood was quantified using Glucometer Elite system (Bayer, Wuppertal, Germany). […]
Diabetes inhibition study. […] Diabetes incidence was monitored by blood glucose levels.

[2] = test system: allogeneic C57BL/6 β-islets transplanted in diabetic Balb/c mice; assay: Allogeneic β-islet transplantation (C57BL/6 into Balb/c), graft survival monitored by glycemia; type: in vivo, mouse
Description: Balb/c mice that had been rendered diabetic by streptozotocin injection were transplanted under the kidney capsule with purified allogeneic C57BL/6 β-islets. Mice were not treated (control, n=13 mice), or treated with rapamycin+antiTac+IL-10 (IL-10 protocol, n=16 mice) or rapamycin+antiTac+FK506 (Edmonton protocol, n=4 mice) for 30 days. Graft survival was monitored by glycemia levels. A graft was considered rejected when glycemia was higher than 250 mg/dl.
Balb/c mice that had been rendered diabetic by streptozotocin injection were transplanted under the kidney capsule with purified allogeneic C57BL/6 β-islets. Mice were not treated (control, n=8 mice), or treated with rapamycin in combination with IL-10 (rapa+IL10, n=8 mice) or IL10 only (n=4 mice). Graft survival was monitored by glycemia levels.
Allogeneic β-islet transplantation. A model of fully mismatched murine islet allotransplantation (C57BL/6 into Balb/C) was used.
Balb/c mice that had been rendered diabetic by streptozotocin injection were transplanted under the kidney capsule with purified allogeneic C57BL/6 β-islets.
Treatment of transplanted mice. […] Diabetes incidence was monitored by blood glucose levels.

| Molecule | CD4+CD25+ T cells as share of CD4+ T cells isolated from IIC [1] | diabetes incidence (NOD mice; NOD mice treated from 11 to 31 weeks of age, vehicle 95% (FIG. 10A)) | effect on the development of diabetes (NOD mice; NOD mice treated from 11 to 31 weeks of age (FIG. 10A)) | long-term graft survival ([2]; Balb/c mice treated for 30 days, without antiTac (FIG. 2)) | prevention of graft rejection ([2]; Balb/c mice, FIG. 2) |
| --- | --- | --- | --- | --- | --- |
| CO[C@H]1C[C@@H]2CC[C@@H](C)[C@@](O)(O2)C(=O)C(=O)N2CCCC[C@H]2C(=O)O[C@H]([C@H](C)C[C@@H]2CC[C@@H](O)[C@H](OC)C2)CC(=O)[C@H](C)/C=C(\C)[C@@H](O)[C@@H](OC)C(=O)[C@H](C)C[C@H](C)/C=C/C=C/C=C/1C [rapamycin] | ~100% | 46% |  |  |  |
| B1 |  |  | no significant effect | 30% | not efficient in preventing graft rejection |
